# Experimental data reported in patent US20130142788A1 (published 2013).
# Numbering of substitutions follows the chain as printed.
# B1: H2L2-C91S_G99D (antibody, V domains shown)
# VH: QVQLVQSGAEVKKPGASVKVSCKASGYSFTGYFMHWVRQAPGQGLEWMGNIYPYNGVSNYNQRFKARVTMTTDTSTSTAYMELRSLRSDDTAVYYCARRYYYDTGPADWYFDVWGQGTLVTVSS
# VL: DIQMTQSPSSLSASVGDRVTITCKASQDINSYLSWFQQKPGKAPKSLIYRANRLVDGVPSKFSGSGSGTDYTLTISSLQPEDFATYYCLQSDEFPLTFGQGTKLEIKR
# B2: H2L2-C91S_P100B_F (antibody, V domains shown)
# VH: B1 VH with D103G, P106F
# VL: B1 VL
# B3: H3L4 (antibody, IgG1, V domains shown)
# VH: B1 VH with M48I, V68A, M70L, D103G, F111Y
# VL: B1 VL with T69Q
# notes: Humanised IgG1/kappa
# B4: H3L5 (antibody, IgG1, V domains shown)
# VH: B1 VH with M48I, V68A, M70L, D103G, F111Y
# VL: B1 VL with S46T
# notes: Humanised IgG1/kappa
# B5: H3L6 (antibody, IgG1, V domains shown)
# VH: B1 VH with M48I, V68A, M70L, D103G, F111Y
# VL: B1 VL with S46T, T69Q
# notes: Humanised IgG1/kappa
# B6: H4L4 (antibody, IgG1, V domains shown)
# VH: B1 VH with T72V, T74K, D103G, F111Y
# VL: B1 VL with T69Q
# notes: Humanised IgG1/kappa
# B7: H4L5 (antibody, IgG1, V domains shown)
# VH: B1 VH with T72V, T74K, D103G, F111Y
# VL: B1 VL with S46T
# notes: Humanised IgG1/kappa
# B8: H4L6 (antibody, IgG1, V domains shown)
# VH: B1 VH with T72V, T74K, D103G, F111Y
# VL: B1 VL with S46T, T69Q
# notes: Humanised IgG1/kappa
# B9: H5L4 (antibody, IgG1, V domains shown)
# VH: B1 VH with M48I, V68A, M70L, T72V, T74K, D103G, F111Y
# VL: B1 VL with T69Q
# notes: Humanised IgG1/kappa
# B10: H5L5 (antibody, IgG1, V domains shown)
# VH: B1 VH with M48I, V68A, M70L, T72V, T74K, D103G, F111Y
# VL: B1 VL with S46T
# notes: Humanised IgG1/kappa
# B11: H5L6 (antibody, IgG1, V domains shown)
# VH: B1 VH with M48I, V68A, M70L, T72V, T74K, D103G, F111Y
# VL: B1 VL with S46T, T69Q
# notes: Humanised IgG1/kappa
# B12: H6L4 (antibody, IgG1, V domains shown)
# VH: B1 VH with V20I, M48I, R67K, V68A, M70L, T72V, T74K, D103G, F111Y
# VL: B1 VL with T69Q
# notes: Humanised IgG1/kappa
# B13: H6L6 (antibody, IgG1, V domains shown)
# VH: B1 VH with V20I, M48I, R67K, V68A, M70L, T72V, T74K, D103G, F111Y
# VL: B1 VL with S46T, T69Q
# notes: Humanised IgG1/kappa
# B14: H7L4 (antibody, IgG1, V domains shown)
# VH: B1 VH with G56S, T72V, T74K, D103G, F111Y
# VL: B1 VL with T69Q
# notes: Humanised IgG1/kappa
# B15: H7L5 (antibody, IgG1, V domains shown)
# VH: B1 VH with G56S, T72V, T74K, D103G, F111Y
# VL: B1 VL with S46T
# notes: Humanised IgG1/kappa
# B16: H7L6 (antibody, IgG1, V domains shown)
# VH: B1 VH with G56S, T72V, T74K, D103G, F111Y
# VL: B1 VL with S46T, T69Q
# notes: Humanised IgG1/kappa
# B17: H8L4 (antibody, IgG1, V domains shown)
# VH: B1 VH with M48I, G56S, V68A, M70L, T72V, T74K, D103G, F111Y
# VL: B1 VL with T69Q
# notes: Humanised IgG1/kappa
# B18: H8L6 (antibody, IgG1, V domains shown)
# VH: B1 VH with M48I, G56S, V68A, M70L, T72V, T74K, D103G, F111Y
# VL: B1 VL with S46T, T69Q
# notes: Humanised IgG1/kappa
# B19: H9L4 (antibody, IgG1, V domains shown)
# VH: B1 VH with V20I, M48I, G56S, R67K, V68A, M70L, T72V, T74K, D103G, F111Y
# VL: B1 VL with T69Q
# notes: Humanised IgG1/kappa
# B20: H9L5 (antibody, IgG1, V domains shown)
# VH: B1 VH with V20I, M48I, G56S, R67K, V68A, M70L, T72V, T74K, D103G, F111Y
# VL: B1 VL with S46T
# notes: Humanised IgG1/kappa
# B21: H9L6 (antibody, IgG1, V domains shown)
# VH: B1 VH with V20I, M48I, G56S, R67K, V68A, M70L, T72V, T74K, D103G, F111Y
# VL: B1 VL with S46T, T69Q
# notes: Humanised IgG1/kappa
# B22: H2L2-C91S_P100B_I (antibody, V domains shown)
# VH: B1 VH with D103G, P106I
# VL: B1 VL
# B23: H2L2-C91S_Y96L (antibody, V domains shown)
# VH: B1 VH with Y100L, D103G
# VL: B1 VL
# B24: H6L5 (antibody, IgG1, V domains shown)
# VH: B1 VH with V20I, M48I, R67K, V68A, M70L, T72V, T74K, D103G, F111Y
# VL: B1 VL with S46T
# B25: H2L2-C91S_F100G_N (antibody, V domains shown)
# VH: B1 VH with D103G, F111N
# VL: B1 VL
# B26: H2L2-C91S_G99S (antibody, V domains shown)
# VH: B1 VH with D103S
# VL: B1 VL
# B27: H2L2-C91S_G100A_K (antibody, V domains shown)
# VH: B1 VH with D103G, G105K
# VL: B1 VL
# B28: H2L2-C91S_W100E_F (antibody, V domains shown)
# VH: B1 VH with D103G, W109F
# VL: B1 VL
# B29: HoLo (antibody, V domains shown)
# VH: B1 VH with S28T, D103G
# VL: B1 VL with Y71F, S91C
# notes: also called H0L0; copies: 2 + 2
# Target: T1, recombinant mature dimeric myostatin (human and mouse (mature sequences 100% …, UniProt O08689 268-376))
# T1 construct: also called GDF-8; mature myostatin
# T1 sequence: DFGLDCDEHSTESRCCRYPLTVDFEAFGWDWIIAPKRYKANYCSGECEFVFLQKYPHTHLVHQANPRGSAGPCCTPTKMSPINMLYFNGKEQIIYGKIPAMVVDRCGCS
# Assay: myostatin competition ELISA, polyclonal Ab capture of myostatin, competitor 10B3
# Experimental: (§1) A 96-well ELISA plate was coated at 4° C. overnight with 2.5 μg/ml polyclonal Antibody to Myostatin (R&D Systems AF788). This plate was then washed 3-times in wash buffer (PBS, 0.1% Tween-20) and blocked for 1 hour at room temperature with block solution (PBS, 0.1% Tween-20+1% bovine serum albumin [BSA]). Then, myostatin was added at 1 μg/ml in block buffer during 1 hour followed by 3-times in wash buffer. Antibodies were then titrated out to a suitable concentration range (approximately 10 to 0.01 μg/ml), added to the plate and incubated for 1 hour at room temperature. The plate was then washed 3-times in wash buffer. An anti-human kappa light chain HRP-conjugated antibody (Sigma A7164, used according to the manufacturer's instructions) was used to detect binding of humanized or chimeric antibodies, such as 10B3 chimera (HcLc) or H0L0. The plate was then washed 3-times in wash buffer and developed with an OPD substrate (according to the manufacturer's instructions) and read at 490 nm on a plate reader.
# The protocol set out in 5.7 was used with the addition of 10B3 (final concentration of […]) to each well and mixed with the antibodies titrated out to a suitable concentration range (approximately 10 to 0.01 μg/ml). An anti-mouse HRP-conjugated antibody (DAKO P0260, used according to the manufacturer's instructions) was used to detect binding of the 10B3 antibody.
row,Binder,"rank among the five most potent, top (1) to bottom (5) [rank]"
1,B1,5
2,B2,1

# Target: T1, recombinant mature dimeric myostatin
# Assay: ActRIIb neutralisation ELISA: inhibition of 2 nM biotinylated myostatin binding to coated ActRIIb
# Experimental: Recombinant soluble ActRIIb (R&D Systems 339-RBB) was coated in wells of an ELISA plate at 1 μg/ml in carbonate buffer overnight at 4° C. Plates were blocked with PBS containing 0.1% tween 20 and 0.1% BSA and washed following standard ELISA protocols. In parallel, 2 nM biotinylated myostatin (in-house reagent, described above) was pre-incubated with a dilution series of the antibodies of Tables 21 and 22 for 30 minutes at 37° C. The biotinylated myostatin:antibody reactions were then added (50 μl/well) to the ActRIIb coated plate for 1 hour at 37° C. Standard wash procedures were followed prior to addition of 50 μl per well of a 1:200 diluted streptavidin-HRP conjugate (R&D Systems. #890803) followed by a further 37° C. incubation for 1 hour. Plates were again washed and assayed at absorbance 490 nm following substrate (R&D Systems, #DY999) and acid stop solution treatment.
row,Binder,IC50 [nM]
1,B3,1.31
2,B4,1.08
3,B5,3.04
4,B6,0.395
5,B7,0.336
6,B8,0.273
7,B9,0.211
8,B10,0.149
9,B11,0.166
10,B12,0.225
11,B13,0.32
12,B14,0.038
13,B15,0.028
14,B16,0.031
15,B17,0.079
16,B18,0.101
17,B19,0.141
18,B20,0.14
19,B21,0.129

# Target: T1, recombinant mature dimeric myostatin
# Assay: myostatin competition ELISA, direct capture of myostatin, competitor 10B3
# Experimental: as §1
# The protocol set out in 5.7 was used but the plates were initially coated at 4° C. overnight with 0.2 μg/ml of myostatin (recombinant in-house, see 1.1 above). 10B3 (final concentration of 0.3 μg/ml) was added into each well and mixed with antibodies titrated out to a suitable concentration range (approximately 10 to 0.01 μg/ml). An anti-mouse HRP-conjugated antibody (DAKO P0260, used according to the manufacturer's instructions) was used to detect binding of the 10B3 antibody.
row,Binder,"rank among the five most potent, top (1) to bottom (5) [rank]"
1,B2,1
2,B22,5

# Target: T1, recombinant mature dimeric myostatin
# Assay: myostatin competition ELISA, biotinylated myostatin on streptavidin, competitor 10B3
# Experimental: The protocol set out in 5.7 was used but the plates were initially coated at 4° C. overnight with 5 μg/ml of streptavidin. Biotinylated myostatin was added at 0.3 μg/ml block buffer during 1 hour followed by 3-times in wash buffer. 10B3 (final concentration of 0.2 μg/ml) was added into each well and mixed with antibodies titrated out to a suitable concentration range (approximately 10 to 0.01 μg/ml). An anti-mouse HRP-conjugated antibody (DAKO P0260, used according to the manufacturer's instructions) was used to detect binding of the 10B3 antibody.
row,Binder,"rank among the five most potent, top (1) to bottom (5) [rank]"
1,B22,3
2,B23,5

# Target: T1, recombinant mature dimeric myostatin
# Assay: cell-based or functional assay
row,Binder,"IC50, myostatin responsive reporter gene neutralisation assay (A204) [nM]"
1,B6,7.9
2,B7,6.5
3,B8,6.9
4,B10,6.1
5,B24,6
6,B15,6.3
7,B20,4

# Target: T1, recombinant mature dimeric myostatin
# Assay: myostatin capture ELISA: polyclonal anti-myostatin coated, myostatin 1 ug/ml captured, antibody titrated, anti-human kappa-HRP, OPD, A490
# Experimental: The eleven affinity purified CDRH3 variants were also analyzed for binding activity in the myostatin capture ELISA.
# as §1
row,Binder,binding result
1,B25,binds
2,B26,binds
3,B27,binds
4,B28,binds
5,B29,binds

# Target: T1, recombinant mature dimeric myostatin
# Assay: cell-based or functional assay
# Remark: another data set of the same source
row,Binder,"Mean IC50, A204 in vitro activity assay [nM]"
1,B2,4.24
2,B22,4.53
